# Laboratory results taken from the DeepSol protein solubility set.
# Assay: soluble on expression in E. coli; label from the status in PepcDB or PDB records
row,Sequence,soluble on expression in E. coli
1,MEFVPEQHPPITETTTGAASNGCPVVGHMKYPVEGGGNQDWWPNRLNLKVLHQNPAVADPMGAAFDYAAEVATIDVDALTRDIEEVMTTSQPWWPADYGHYGPLFIRMAWHAAGTYRIHDGRGGAGGGMQRFAPLNSWPDNASLDKARRLLWPVKKKYGKKLSWADLIVFAGNCALESMGFKTFGFGFGRVDQWEPDEVYWGKEATWLGDERYSGKRDLENPLAAVQMGLIYVNPEGPNGNPDPMAAAVDIRETFRRMAMNDVETAALIVGGHTFGKTHGAGPADLVGPEPEAAPLEQMGLGWKSSYGTGTGKDAITSGIEVVWTNTPTKWDNSFLEILYGYEWELTKSPAGAWQYTAKDGAGAGTIPDPFGGPGRSPTMLATDLSLRVDPIYERITRRWLEHPEELADEFAKAWYKLIHRDMGPVARYLGPLVPKQTLLWQDPVPAVSHDLVGEAEIASLKSQIRASGLTVSQLVSTAWAAASSFRGSDKRGGANGGRIRLQPQVGWEVNDPDGDLRKVIRTLEEIQESFNSAAPGNIKVSFADLVVLGGCAAIEKAAKAAGHNITVPFTPGRTDASQEQTDVESFAVLEPKADGFRNYLGKGNPLPAEYMLLDKANLLTLSAPEMTVLVGGLRVLGANYKRLPLGVFTEASESLTNDFFVNLLDMGITWEPSPADDGTYQGKDGSGKVKWTGSRVDLVFGSNSELRALVEVYGADDAQPKFVQDFVAAWDKVMNLDRFDVR,soluble
2,MQLKTEYGKIDPYITKDGSIIRELMHPAIHGNSGQSLAEATVPAGGQTMLHKHAVAEEIYHITEGCGIMTLGGQEFEIRKGDTVCILPGTPHRIMNTGEKELKILCCCAPAYSHEDTELMKLEHHHHHH,soluble
3,MDEEASRTARESLELVFRMSNILDTGLDRHTLSVLIALCDLGVNPEALATVVKELRRESIPDSVTTTPSIH,soluble
4,SFVKDFKPQALGDTNLFKPIKIGNNELLHRAVIPPLTRMRALHPGNIPNRDWAVEYYTQRAQRPGTMIITEGAFISPQAGGYDNAPGVWSEEQMVEWTKIFNAIHEKKSFVWVQLWVLGWAAFPDNLARDGLRYDSASDNVFMDAEQEAKAKKANNPQHSLTKDEIKQYIKEYVQAAKNSIAAGADGVEINSANGYLLNQFLDPHSNTRTDEYGGSIENRARFTLEVVDALVEAIGHEKVGLRLSPYGVFNSMSGGAETGIVAQYAYVAGELEKRAKAGKRLAFVHLVEPRVTNPFLTEGEGEYEGGSNDFVYSIWKGPVIRAGNFALHPEVVREEVKDKRTLIGYGRFFISNPDLVDRLEKGLPLNKYDRDTFYQMSAHGYIDYPTYEEALKLGWDKS,soluble
5,MGSDKIHHHHHHMKGIISLIHGGKTFVDQIHSACQDAGIELYVISSNTVDADLLQNMSDKATVLEVIEGTDLNFESVLSFVEKLQQSNKQALACISVWENYRPLMARLNQALGAQDMCPEQVNLLRDKHLLRKVLYDAGLSQVNSRILTQEVFIQIQKNRELAFVKPRQGIASYGAFKLRPSTQWQQITEIAEQIQSDAVFSSSFADEVEFVAEDYISGVEFCFEIIHHDGQCNLIAIHEKLEVGEQNLTTLENVSASPPISLNRKQIEQANLWVSSIFERLELGSGCYHLEAKFDNNQWEVIEINPRIGGSYINESVAHVAGYSLLELWIRSLLRAGCSEYQAFLKVLSPHSEQFFERQQGSYFRVFFAEPNRTISRLNFKLGTPPIHKKLLMKEGQTTPNASRELFMAQALWSWSVSQDSVQTRAQISESLTALEVEYE,not soluble
6,MSASLVETVDIEAPVAVTWALWSDVSRWPSFLSHVRLVEPLDERRFAWQLSLPGADKNFVAELTEVIPGDRIAWQTTEGVHHAGVVTFHRLSDTSSRVTLQIEYDPKGFVEHIGALTNLDSTLANYDLGEFQKLAETAAAGLEHHHHHH,not soluble
7,MPISTPQEIIEDIRQGKMVILMDDEDRENEGDLIMAAEHITPAAINFMATHGRGLICLTLTKERCRRLGLNPMVQDNNAQYTTNFTVSIEAAEGVTTGISAADRARTVQAAVAKEAKAADLVQPGHIFPLAAQDGGVLTRAGHTEAGCDLARLAGLEPASVIVEILNDDGTMARRPDLEVFAEKHGLKLGTIADLIEYRNHTETTIERVAQCKLPTEYGEFELVTYRDIIDKQIHFALRKGDITSAPTLVRVHLQDTFTDLLHSNRAAERSWPLATAMQRIGQEGGVLVILGHEESSELLLHRVKMFELQDKGEAPAMAKKQGTSRRVGVGSQILADLGVKEMRLLSSPNKKYHALGGFGLNVVEYVCE,not soluble
8,MAKVVVLGAGVSGHTCASFLKKKLGKQHEVVVISPNSYYQWIPSNIWVGVGHMTIDDVRFKLKKVYDRWGIDYKQAKAVSIHPEGDANISKGYVTIEYTDEEHAGYTETVDYDYLVNATGPKLNFEATEGLGPDKNSLSVCTYSHAAHAWEELQKSIEKMKNGQKQRFLIGTGHAMATCQGAAFEYILNVAHEISRRGLSHMAELTWISNEYELGDFGMGGAFIKRGGYITPTKVFTESLLAEYGIKWIRRAGVYKVEPGVAHYETLDGEMLSQEFDFAMLIPSFSGVGLTAFDKSGNDITDKMFLPNKFMKVDADYTAKPFGEWGANDWPTIYQTPMYSNIYAAGIAFAPPHSISKPMTSVNGRQIFPTPPRTGMPSGVIGKIIALNISEQIKGNHKEHHHKASMARMGAACIVSAGFGSFDGLGASMTVFPIVPDWEKYPEWGRDMTYSVGEVGLAGHWLKFMLHYLFFHKAKGYPFWYLIPELEHHHHHH,not soluble
9,MANKKIDHREEAIELLKQDAKRILQLIKVQMDNLTLPQCPAYEEVLDTQMYGLSREINFATRLGLIEPEEGKKLISTLEKELSALHELSMSKK,not soluble
10,MGSDKIHHHHHHMAIYEARGFSSYLYPYKGPLEPFDYIAQFRPLKPPEDIDIEEYKRTQAPYCLSGKVTAEKNGSYKRNNASLVYRDLIFLDYDEIETGVNLPKIVSQTLWEYSYIIYPTIKHTPEKPRYRLVMKPSDVMTEATYKQVVKEIADKIGLPFDLASLTWSQLQGLPVTTGDPEDYQRYVNHGLDYPVPKNGSTPNRQVVTTYTPRPRSQRSITMRVIDTLFNGFGNEGGRNVALTKFVGLLFNKWVDCDLETAYELVQIANSVTTKPLPIDEIDRTFTSIAKAEYRKRG,not soluble
11,MSKPSTPAPASADQNGDSATRQTAQTTETPASLLSAVGNGAPNMAGFTLNRDMVPFFPYQLQNPMLQPPQNSLENAIVHSLGTLAAQSSMFGQLCEKMLKAQEEARADQRSIREEHRAEREKADERSQQNMDKMMALVHSLVERVDRSHASSYDVVGQKNPSSSSLKPAKRVKSAVVRQSNLAKRTGAPVDAAKELKKIRDEENRNHGRSAERDNVFIGAVLVGKGSQYDKDLEKFKSFRCRTCNEVSQTKEQLVDHFSNNHAGELGARRSLRIKQTSC,not soluble
12,MGSDKIHHHHHHMSADKYEVIIIGAGLAGLSAAYKLAKAGMEVVVVERGDYPGSKNLSGGVLYSRILDQLIPDFWEEAPIERYITNYLTTLMTPTDYVNIEYKDQELAKPPYNAVTVLRAKFDRWLAEKAEEAGAMIVTGVKVDKVLKEGGRITGITTGDEEMLADVVIAADGINSFIAQEAGLRGEIEPAHLAVGAKALIELPQQAIEERFRLEGNEGTAYAMLGDATHGVAGGGFFYTNRESLSIGVVMRLDDLVKEKVKPFEVLDDLLRHPLVAPLVKDGTMTEYGAHLTAEGGVHMVPSQLHTDGMLIVGDAAGFTINSGLVIRGMDLAIGSGMAAAEAVLEAKERGDYSAAALSSYQRKLDEGFIMKDLKLYAKAVDFMETDRLYKNYAPLANHLFGRIYNHDLSPKEHLWKSVLGSVQESGISWLDLARDGIKGVRAL,not soluble
13,SLVTLGEGFEKARLTRFLEKFGGNEGSQFLYLKDYGHFYYQEEGEDQVLFGFQMKFNKCFVLADPIGQREKWTAATLAFMDQADLLGYQLVFYRISEEYVMNLHDCGFEFMKVGEEGLIQFDEPSTVNQTAWTETVTEKIAAEAADFQFEFYPETISDALYQELERVSADWSRNQKERYFIGGRLDPEYLKCSSVGLVRQKQTVIGFITGKEMEKGKSISYDLLRIRSDAPAFTREYLFTHFIETYQQQGYQLIDIGMAPLANVGESKYSFLKERFVNIFYKYSYQIYAFQDTRKRKEQYVTSWQPRYFAYPKRTSVLFAFVQLSLLITKGRHQSVSLVEEAMTEI,not soluble
14,MRGSHHHHHHGMASMRILLSNDDGVHAPGIQTLAKALREFADVQVVAPDRNRSGASNSLTLESSLRTFTFDNGDIAVQMGTPTDCVYLGVNALMRPRPDIVVSGINAGPNLGDDVIYSGTVAAAMEGRHLGFPALAVSLNGYQHYDTAAAVTCALLRGLSREPLRTGRILNVNVPDLPLAQVKGIRVTRCGSRHPADKVIPQEDPRGNTLYWIGPPGDKYDAGPDTDFAAVDEGYVSVTPLHVDLTAHSAHDVVSDWLDSVGVGTQW,soluble
15,MSLGTLKLFNIGNMVTYSMNESSMISSKGMEILISDGKIIEIGPKVGDADQLFDCENKLVTPGFVDCHTHPVFLDGRENEFEMRLKGFSYEEIANEGGGIKNSVKSVRNSSEVELYNRVISRMDKFLKLGTTTIEAKSGYGLDINSELKSLKVIHEVNLAHQIDILPTFMGAHAVPNEYADDIDSYVDLICDSMIPQVAEQGIAIFNDVFCEKGYFNLKQSERILKKGLDYGLLPRIHSDEFNNLGASKLAGKLNLISADHLMKIEKDDIEIMADSNTKAVLLPGTTFFLGHSNYAPYHKLKEAGIEVAIASDYNPEGHHHHHH,soluble
16,MSLKLVKLETFSTEFVCFVRATAEDGAQGWGQVAPYYADITAQVLHRQVAPYALGMACEDIDAMLDIVRDREHKFPGSYLRRAMGGVDTALWDMHGRRAGKPVCVLIGGTPGPVRAYGSSMKRDITPRDEAARLVRLRDEQGFDAFKFRIGAEVGRDRDEWPGRTEEIVPTMRRAMGDDVALLVDANSCYSPARAIEVGRMLEQHGISHYEEPCPYWEFAQTKEVTDTLDLDITGGEQDCLMERWQTMIADRVVDVLQPDICYLGGLSRTLRVARMAEAAGMPITPHAANLSMVTLFTMHLLRAIPNAGKYLEFSIEGLDYYPWQQGLFTSDPYRIEEGHATVTDAPGWGVDVNPDWLARSEGHHHHHH,not soluble
17,SVPLVAVVSGPRAQLFACLLRLGTQQVGPLQLHTGASHAARNHYEVLVLGGGSGGITMAARMKRKVGAENVAIVEPSERHFYQPIWTLVGAGAKQLSSSGRPTASVIPSGVEWIKARVTELNPDKNCIHTDDDEKISYRYLIIALGIQLDYEKIKGLPEGFAHPKIGSNYSVKTVEKTWKALQDFKEGNAIFTFPNTPVKCAGAPQKIMYLSEAYFRKTGKRSKANIIFNTSLGAIFGVKKYADALQEIIQERNLTVNYKKNLIEVRADKQEAVFENLDKPGETQVISYEMLHVTPPMSPPDVLKTSPVADAAGWVDVDKETLQHRRYPNVFGIGDCTNLPTSKTAAAVAAQSGILDRTISVIMKNQTPTKKYDGYTSCPLVTGYNRVILAEFDYKAEPLETFPFDQSKERLSMYLMKADLMPFLYWNMMLRGYWGGPAFLRKLFHLGMS,soluble
18,MLSFCPSCNNMLLITSGDSGVYTLACRSCPYEFPIEGIEIYDRKKLPRKEVDDVLGGGWDNVDQTKTQCPNYDTCGGESAYFFQLQIRSADEPMTTFYKCVNCGHRWKEN,not soluble
19,MAHHHHHHMMSFTANSGNSPMSQMSPLSQPYTSPQMLPQSSLRPTAPPFTLSGTEDQPTAGAPIRKGGTDPTRYKTTICRNWEMGSCSFKGCTFAHGEEELRMPPRVERYKSSGFDTRRSLTAETPPLYPLNPLPHSGVGRIEHLLNMLYSEVLRERNRFVAHEEANQALEALLKKEQMQREETEVQLEAARWKLEQLRTTVHEASVEINTLLASSPANEELRDRVAMVTQKIASVFSSEDTAVGGGREDEERVMKLLSSLQNCQSTEDM,not soluble
